The supplement of paper PMC9170038

Tested on: MS2 coat protein
Experiment: apparent KD of MS2 coat protein; higher = weaker reporter binding
Details: Eterna round: R107
Outline: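 In 100 mM Tris-HCl pH 7.5 with 80 mM KCl and 4 mM MgCl2, and without or with constant ligand, SNAP-549-labelled MS2 coat protein was titrated in twofold steps from 0.7 or 1.5 nM to 3 µM. Per-step times went from 0.8–1.5 h down to 10–20 min. The RNA switches were transcribed on-chip from Illumina sequencing clusters, and apparent KD is the per-design median of normalised cluster binding-curve fits.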

[1] = input ligand: theophylline 20 uM
[2] = input ligand: theophylline 2 mM
[3] = input ligand: tryptophan 2.4 mM

Sequence | apparent KD of MS2 coat protein (input ligand: arginine 13.2 mM) [nM] | apparent KD of MS2 coat protein [1] [nM] | apparent KD of MS2 coat protein [2] [nM] | apparent KD of MS2 coat protein [3] [nM] | apparent KD of MS2 coat protein (input ligand: none) [nM]
UAGAAACGUACGGCCGCCACUCGGAAUUGGCUCAGACCAUACGUACAUGAGGAUCACCCAUGUUAGAGGACCGGGUAUAAUCUAA [theeternabot_sameState_MS2_Trp_B_46] | 18.5 | 30.8 | 31 |  | 
UAGAGCCAGUCGGCCGCCACUCUCCAUAUGUGAGCCUUUAAGUUCUACAUGAGGAUCACCCAUGUGAGGACCGGGACCGAAUCUA [theeternabot_exclusion_MS2_Trp_B_18] | 39.7 | 80.3 | 93.8 |  | 
UAUAACAUGAGGAUCACCCAUGUAAGUGAUACCAGAUAAAUAAUAGUCCCUUGGCAGCAUAUUGGGAAAGUGUAUAAUAUAUAUU [Same State - Theophylline A (Freestyle 2)] | 50.8 | 66.1 |  | 48.1 | 
UAUAUAAUAACAGAUACCAGCGUGUUAUAAAACAUGAGGAUCACCCAUGUAGUGAUCAAGCGCCCUUGGCAGCUGGUAUUAUAUA [7.A] | 123 | 140 |  | 47.6 | 
UAUAUAGAAGGAAGUCAUAUAGUUGCAGAAGGAGCGUAGGAAACUACAGGUAGGUCGCUGAGGUACAUGAGGAUCACCCAUGUAG [SSArg A #16 Slice of Pi] | 31.1 | 41 | 29.7 | 27.2 | 23.6
UAUAUAUAUAUUGAUACCAGCAGAGAAAACGUUUAUCCUAACAUGAGGAUCACCCAUGUAUGCCCUUGGCAGCGGUAUAUAUAUA [8.D] | 19.7 | 29.2 |  | 22.6 | 
UAUCCACAUGAGGAUCACCCAUGUAGGGAAGGAGCGGUGGUUUCACCAGGUAGGUCGCCUUACUGAGGAGAACCGGUGGAAUCGU [Exclusion - Arginine A (Freestyle 29)] | 23.8 | 61.7 | 105 | 42.6 | 42.1
UAUCCACAUGAGGAUCACCCAUGUUAGGAAGGAGCGGUGAAUGCACCAGGUAGGUCGCCUAGCUGAGGACUGUCGAUGGAUUCGU [Exclusion - Arginine A (Freestyle 18)] | 23.3 | 30.8 | 39.6 | 26 | 23.9
UAUCGUCAGACGGCCGCCACUAGAACAUGAGGAUCACCCAUGUACGGCCGCCCGGUAUGGGUGUCUAGGACCGGGUCUGACGAAU [(Trp1)-(Ms2)-(T)'-(M)'-(Trp2)_Design21] | 22.9 | 37.8 | 39.8 |  | 
UAUCGUCAGACGGCCGCCACUAGUACAUGAGGAUCACCCAUGUAGGUCCUAGAUUCCUCAUGAUCUAGGACCGGGUCUGACGAAU [(Trp1)-(Ms2)-(T)'-(M)'-(Trp2)_Design16] | 21.4 | 61.5 | 52.9 |  | 
UAUCUAACGAAGGAUACCAGUACAUGAGAGUACAUGAGGAUCACCCAUGUUAGAUACGGGUACCCUUGGCAGCCUCACCUACACC [theeternabot_sameState_MS2_Theo_B_11] | 40.3 | 71.6 |  | 58 | 
UAUGCACAUGAGGAUCACCCAUGUAUGGAAGGAGCGGUGAAUGAACCAGGUAGGUCGCCAUGGUGAGGAUCAUCUAUGUAAUCGU [Exclusion - Arginine A (Freestyle 7)] | 38.9 | 117 | 128 | 86.8 | 86
UCACUCCUGAUGGAUACCAGUUACUAACGCAACAUGAGGAUCACCCAUGUGAACACUCAGAACCCUUGGCAGCCAGGAGAACGAA [theeternabot_sameState_MS2_Theo_B_30] | 42.8 | 60.2 |  | 53.8 | 
UCAUAUUAGAUAGAUGUAAGGUAUCAUGAUACCAGUAGAUAAUUAUACCCUUGGCAGCAUAACAUGAGGAUCACCCAUGUACAUG [Aa] | 20.3 | 22 |  | 17.9 | 
UCAUAUUAGUGAGAUGUAAGGUAUCAUGAUACCAGUAGAUAAUUAUACCCUUGGCAGCAUAACAUGAGGAUCACCCAUGUACAUG [Ab] | 23.1 | 21.3 |  | 19.8 | 
UCCAUCGGCGGAAGCCGAUGGUUUACAGAAGGAGCGUGGAUUAACACAGGUAGGUCGCUGGACAUGAGGAUCACCCAUGUGAUAG [SSAA #6] | 40.1 | 117 | 60.4 | 55 | 60.4
UCGAAUGCGGCGGCCGCCACUCGCGGAUAACGAUAGCUUAACAUGAGGAUCACCCAUGUGUCAUGGAGGACCGGGCCCAUACCGU [azamullin] | 19.7 | 36.1 | 26.6 |  | 
UCGGGAACAUGAGGAUCACCCAUGUCAGAAGGAGCGCUGAGAGAAGCAGGUAGGUCGCUGACGCAGGAGCUCUCUUCCUGUACGC [#22 Exclusion - Arginine A] | 96.2 | 46.4 | 22.6 | 15.9 | 33.8
UCGGGUUUGCGAAGGAGCGGGUAUGUUUUCUAGUGGAUCCUAACAUGAGGAUCACCCAUGUCCCAGGUAGGUCGCGCGGGUUUGG [12.W] | 183 | 291 | 168 | 100 | 102

Sequence | apparent KD of MS2 coat protein (input ligand: arginine 13.2 mM) [nM] | apparent KD of MS2 coat protein [1] [nM] | apparent KD of MS2 coat protein [2] [nM] | apparent KD of MS2 coat protein [3] [nM] | apparent KD of MS2 coat protein (input ligand: none) [nM]
UCGUCAGGCGCGGCCGCCACUGCGGUGAUGUGACAUGAGGAUCACCCAUGUUGUCAUGUGGCACAUAGGACCGGGUGCCUGGCGA [Exclusion - Tryptophan B Attempt #5 (HarryS)] | 8.16 | 44.5 | 114 | 17.6 | 56
UCGUGGUCCGCAAGGACCGGGAGUUGCGAUACCAGCACGGUAACGUGCCCUUGGCAGCGCACAUGAGGAUCACCCAUGUGGUGUU [#1 Exclusion - Theophylline A Attempt #14 (HarryS)] | 40.9 | 305 |  | 174 | 
UCGUGUAUUUCGGAUACCAGUGAAAUCGAUACAUGAGGAUCACCCAUGUGAGAGGAUGUACACCCUUGGCAGCUGUAUAUAUCUG [fgfmullin] | 18.7 | 38.7 | 24.8 | 21.9 | 29.1
UCGUGUGUUUCGGAUACCAGUGAAAUCGAUACAUGAGGAUCACCCAUGUGAGAGGAUGUACACCCUUGGCAGCUGUCUGUAUCGG [asczmullin] | 40.6 | 58.6 | 43.8 | 43 | 54.2
UCGUGUGUUUCGGAUACCAGUGUGGUCGAUACAUGAGGAUCACCCAUGUUAGAGGAGGUACACCCUUGGCAGCCGGCUGUUGCGG [kdtmullin] | 59.9 | 88.5 |  | 79.5 | 
UCGUUUGAGUCGGCCGCCACUGGUCUCAUGGUCAACAUGAGGAUCACCCAUGUAUCUUAGUUAAACAGGACCGGGACUCGAUCGA [#17 Exclusion Tryptophan B] | 62.5 | 67.7 | 34.3 | 20.6 | 50.5
UCUUUCUAUGUAGAUACCAGCAUGUUAUCUUUCUUUUGACAUGAGGAUCACCCAUGUAAAUGCCCUUGGCAGCUACAUUUUCUUU [SSTHB #3] | 21 | 20.9 |  | 19.7 | 
UGACAUUGCUCAGAUACCAGACAGGAGGAUCACUCCUGUGCCAACAAGUACAAAAUAAAUGUCCCUUGGCAGCUGAGCAAUGUCU [TheoBX 25 #MS2Left #AlternativeMS2 #Theo22] | 32 | 223 | 459 | 49 | 71.1
UGACAUUGCUCAGAUACCAGACAUGAGGAUCACCCAUGUACCGAGGUACCCGAAAGGAAUGUCCCUUGGCAGCUGAGCAAUGUCU [TheoBX 4 #MS2Left #Theo2 #StaticStem] | 12.9 | 15.5 |  | 11 | 
UGAUCCUAGACUGAUACCAGUCAUGAGUACAUGAGGAUCACCCAUGUCCAGGGACUCAAUGACCCUUGGCAGCAGAACCUAGUUC [Theo B SS t7] | 155 | 414 |  | 389 | 
UGAUUGAACGGAAGGAGCGUGUAAGAACAAGAACAUGAGGAUCACCCAUGUAUUAAUUUAACACAGGUAGGUCGCCGAGAGAUUG [11.D] | 16 | 15.2 | 14 | 12 | 14.6
UGCCGAGACGUGGAUUACCCAUGUACAGAAGGAGCGCCCGAAAGGGCAGGUAGGUCGCUGAGGACAUGAGGAUCACCCAUGUCGA | 36.6 | 52 | 49.5 | 43.3 | 54.8
UGCCGAGACGUGGAUUACCCGUGUACCGAAGGAGCGCCCGAAAGGGCAGGUAGGUCGCGGAGGACAUGAGGAUCACCCAUGUUGA | 32.8 | 43.7 | 96.8 | 54.8 | 73.7
UGCCUAGACGUGGAUUACCCGUGUACCGAAGGAGCGCCCGAAAGGGCAGGUAGGUCGCGGAGGACAUGAGGAUCACCCAUGUUUG | 44.8 | 123 | 134 | 88.5 | 117
UGGAUAAGGGUAAAUAGGAUAAGUACAGAAGGAGCGCGAAUAAACGCAGGUAGGUCGCUGGACAUGAGGAUCACCCAUGUAAAUG [Same State Arginine A GF 22] | 45.9 | 77.1 | 57.6 | 50 | 48.8
UGGCAAGAGGGAAGGAGCGUCAGCUGAGUCACAUGAGGAUCACCCAUGUCGCACAUAGUGUGACAGGUAGGUCGCCCUCUACCCU [Rearian] | 67.9 | 209 | 217 | 148 | 222
UGGCAGGAGUGAUCCUCCUGCCAAGGUGAUACCAGCAUCGAAAGAUGCCCUUGGCAGCACCAACAUGAGGAUCACCCAUGUAAUA [(MT)''-(M)'-(T')-(Theo)-(Ms2)_Design1/22_10] | 34.1 | 177 |  | 104 | 
UGGUACAUGGCGGCCGCCACUUCACGUAAAAUAAAAGCGUGAGGAUCACCCAUGCAAUAAGUUGGGAGGACCGGGUCAUGUACCU | 311 | 633 | 387 | 244 | 287
UGGUGUAGGGUAAAUAGGAUUAGUACAGAAGGAGCGCGAAUAAACGCAGGUAGGUCGCUGGAAUAAACAUGAGGAUCACCCAUGU [Same State Arginine A GF 27] | 17.4 | 27.4 | 21.5 | 20.7 | 19.2
